Measured values taken from publication doi:10.1101/2020.08.14.250746 (bioRxiv, 2020).

Target: Untagged human calmodulin (recombinant) (human, UniProt P0DP23 1-149)
Experiment: pull-down

binding result: binds
Binder: FGKTKIFFRAGQVAYLEKLRADKLRAACIRIQKTIRGWLLRKRYLCMQR (domain or fragment) [GFP-myoVa-IQ1 (aa742-791)]
